Measurements from patent US20140154255A1 (AbbVie / Abbott, published 2014).

Assays:
[1] = biological target: T1, human VEGF-A residues 27-191 of Accession #AAV38412 (human, UniProt P15692 27-191); test: BIAcore SPR, KD WT/KD mutant [continued]
T1 construct: range 27-191
Protocol: (§1) The binding kinetics and affinity of the antibodies for VEGF (human VEGF-A residues 27-191 of Accession #AAV38412) was determined by using a BIAcore T200 surface plasmon resonance system (BIAcore, GE Healthcare, Piscataway, N.J.). Coupling running buffer was HBS-EP+ running buffer (10 mM HEPES, 150 mM sodium chloride, 3 mM EDTA 0.05% P-20, pH 7.4); assay running buffer was HBS-EP+ with 300 mM sodium chloride and 0.1 mg/mL BSA (Sigma A7906). Polyclonal goat anti-human Fc (Thermo Scientific prod#31125) was first immobilized to the biosensor surface in 10 mM sodium acetate, pH 4.5 using standard BIAcore amine coupling reagents (N-ethyl-N′-dimethylamino-propylcarbodiimide, EDC; N-hydroxysuccinimide, NHS; and ethanolamine HCl, pH 8.5). For binding kinetics assay a series of cycles were performed, each cycle consisted of 1) mAb capture, 2) Ag or buffer injection, 3) dissociation phase and 4) regeneration. Briefly, anti-VEGF antibodies were captured on parallel surfaces at a low flow rate of 10 μL/min. Capture levels were kept low to minimize avidity due to the dimeric nature of VEGF. No capture of the antibody was made on the reference surface to serve for primary referencing and as a negative control. Subsequently, VEGF or buffer only was injected to all flow cells at a flow rate of 80 μL/min for three minutes to monitor association followed by a 20-minute flow of assay rinning buffer at a flow rate of 80 μL/min to monitor dissociation. […] At the end of each cycle the surface was regenerated with 10 mM glycine, pH 1.5 at a flow rate of 60 μL/min in pulses of 60 and 10 sec. Binding data were fit to the 1:1 Langmuir model with mass transport term included using Biacore T200 Evaluation Software to determine the binding constants.

[2] = biological target: T1, human VEGF-A residues 27-191 of …; test: BIAcore SPR [continued]
Protocol: as §1

[3] = biological target: Alexa647-conjugated rHuVEGF (Invitrogen Cat #PHG0143) (human, UniProt P15692-4 27-191, limits assumed, Alexa647-conjugated); test: flow cytometry, surface-bound antibody on 293c18 cells, 3 nM Alexa647-rHuVEGF; parameters: reference not given here
Chain of Alexa647-conjugated rHuVEGF (Invitrogen Cat #PHG0143) (P15692 other isoform, or with tags, fused parts or gaps limits assumed): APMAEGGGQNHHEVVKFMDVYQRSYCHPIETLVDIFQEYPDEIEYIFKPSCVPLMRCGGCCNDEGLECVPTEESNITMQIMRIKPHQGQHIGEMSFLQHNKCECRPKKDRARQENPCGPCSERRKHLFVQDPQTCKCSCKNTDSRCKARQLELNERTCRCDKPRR
Protocol: Data were gathered by way of flow cytometry using a DakoCytomation CyAn ADP flow cytometer and was analyzed using Treestar's FloJo analysis program.

[4] = biological target: T1, human VEGF-A residues 27-191 of …; test: BIAcore SPR
Protocol: as §1

[5] = biological target: T2, unlabeled human VEGF (ELISA coat) (human, UniProt P15692-4 27-191, limits assumed); test: ELISA 1 hr, EC50 WT/EC50 mutant
T2 sequence (P15692 other isoform, or with tags, fused parts or gaps limits assumed): as above
Protocol: (§2) To detect identified variants binding to antigen, ELISA plates (Nunc-Immuno MaxiSorp plates, Nalge Nunc, Rochester, N.Y.) were coated overnight at 4° C. with unlabeled human VEGF at 1 μg/mL in 0.2 M sodium carbonate-bicarbonate buffer (pH 9.4, Pierce, Rockford, Ill.). The plates were then blocked with SuperBlock Blocking Buffer (Pierce, Rockford, Ill.) for 30 min and washed with Washing Buffer (PBS containing 0.1% Tween 20). All the washing steps were performed for three times. […] The plates were washed and 100 μL of goat anti-human kappa HRP-conjugated antibody (Southern Biotech, Birmingham, Ala.) diluted at 1:1000 in ELISA buffer was added to each well. After 30 minutes of incubation, plates were washed and bound antibodies were detected by addition of TMB 1 Component HRP Microwell substrate (BioFx #TMBW-1000-01). The reaction was terminated by addition of 100 μL/well of 650 nM Stop Reagent for TMB Microwell substrate and the absorbance was measured at 650 nm using a VERSAmax microplate reader (Molecular Devices, Sunnyvale, Calif.). Data were fitted using nonlinear regression with the software […]

[6] = biological target: T1, human VEGF-A residues 27-191 of …; test: BIAcore SPR; * detection limit
Protocol: (§3) The binding kinetics and affinity of the antibodies for VEGF (human VEGF-A residues 27-191 of Accession #AAV38412) was determined by using a BIAcore T200 surface plasmon resonance system (BIAcore, GE Healthcare, Piscataway, N.J.). Coupling running buffer was HBS-EP+ running buffer (10 mM HEPES, 150 mM sodium chloride, 3 mM EDTA 0.05% P-20, pH 7.4); assay running buffer was HBS-EP+ with 300 mM sodium chloride and 0.1 mg/mL BSA (Sigma A7906). Polyclonal goat anti-human Fc (Thermo Scientific prod#31125) was first immobilized to the biosensor surface in 10 mM sodium acetate, pH 4.5 using standard BIAcore amine coupling reagents (N-ethyl-N′-dimethylamino-propylcarbodiimide, EDC; N-hydroxysuccinimide, NHS; and ethanolamine HCl, pH 8.5). For binding kinetics assay a series of cycles were performed, each cycle consisted of 1) mAb capture, 2) Ag or buffer injection, 3) dissociation phase and 4) regeneration. Briefly, anti-VEGF antibodies were captured on parallel surfaces at a low flow rate of 10 μL/min. Capture levels were kept low to minimize avidity due to the dimeric nature of VEGF. No capture of the antibody was made on the reference surface to serve for primary referencing and as a negative control. […]

[7] = biological target: T1, human VEGF-A residues 27-191 of …; test: BIAcore SPR, KD WT/KD mutant
Protocol: as §1

[8] = biological target: T1, human VEGF-A residues 27-191 of …; test: BIAcore SPR; kd of this row is at the detection limit
Protocol: as §3

[9] = biological target: T2, unlabeled human VEGF (ELISA coat); test: ELISA overnight, EC50 WT/EC50 mutant
Protocol: as §2

T1 sequence (P15692 other isoform, or with tags, fused parts or gaps limits assumed): as above

Binder	affinity improvement [1]	Kd [2]	koff [2]	kon [2]	MFI [3]	further results
N31 W (SS DLL4-VEGF DVD-Ig) (bispecific antibody, also called SS DLL4-VEGF DVD-Ig variant N31W) VH: EVQLVESGGGLVQPGGSLRLSCAASGFTFSNFPMAWVRQAPGKGLEWVATISSSDGTTYYRDSVKGRFTISRDNAKNSLYLQMNSLRAEDTAVYYCARGYYNSPFAYWGQGTLVTVSSASTKGPEVQLVESGGGLVQPGGSLRLSCAASGYTFTWYGMNWVRQAPGKGLEWVGWINTYTGEPTYAADFKRRFTFSLDTSKSTAYLQMNSLRAEDTAVYYCAKYPHYYGSSHWYFDVWGQGTLVTVSS VL: DIQMTQSPSSLSASVGDRVTITCRASEDIYSNLAWYQQKPGKAPKLLIYDTNNLADGVPSRFSGSGSGTDFTLTISSLQPEDFATYYCQQYNNYPPTFGQGTKLEIKRTVAAPDIQMTQSPSSLSASVGDRVTITCSASQDISNYLNWYQQKPGKAPKVLIYFTSSLHSGVPSRFSGSGSGTDFTLTISSLQPEDFATYYCQQYSTVPWTFGQGTKVEIK	0.9 fold	13 nM	6.92e-05 s⁻¹	5500 M⁻¹ s⁻¹		
T30 W (SS DLL4-VEGF DVD-Ig) (bispecific antibody, also called SS DLL4-VEGF DVD-Ig variant T30W) VH: EVQLVESGGGLVQPGGSLRLSCAASGFTFSNFPMAWVRQAPGKGLEWVATISSSDGTTYYRDSVKGRFTISRDNAKNSLYLQMNSLRAEDTAVYYCARGYYNSPFAYWGQGTLVTVSSASTKGPEVQLVESGGGLVQPGGSLRLSCAASGYTFWNYGMNWVRQAPGKGLEWVGWINTYTGEPTYAADFKRRFTFSLDTSKSTAYLQMNSLRAEDTAVYYCAKYPHYYGSSHWYFDVWGQGTLVTVSS VL: DIQMTQSPSSLSASVGDRVTITCRASEDIYSNLAWYQQKPGKAPKLLIYDTNNLADGVPSRFSGSGSGTDFTLTISSLQPEDFATYYCQQYNNYPPTFGQGTKLEIKRTVAAPDIQMTQSPSSLSASVGDRVTITCSASQDISNYLNWYQQKPGKAPKVLIYFTSSLHSGVPSRFSGSGSGTDFTLTISSLQPEDFATYYCQQYSTVPWTFGQGTKVEIK	0.8 fold	16 nM	0.000143 s⁻¹	9120 M⁻¹ s⁻¹		
S100a T (SS DLL4-VEGF DVD-Ig) (bispecific antibody, also called SS DLL4-VEGF DVD-Ig variant S100aT) VH: EVQLVESGGGLVQPGGSLRLSCAASGFTFSNFPMAWVRQAPGKGLEWVATISSSDGTTYYRDSVKGRFTISRDNAKNSLYLQMNSLRAEDTAVYYCARGYYNSPFAYWGQGTLVTVSSASTKGPEVQLVESGGGLVQPGGSLRLSCAASGYTFTNYGMNWVRQAPGKGLEWVGWINTYTGEPTYAADFKRRFTFSLDTSKSTAYLQMNSLRAEDTAVYYCAKYPHYYGTSHWYFDVWGQGTLVTVSS VL: DIQMTQSPSSLSASVGDRVTITCRASEDIYSNLAWYQQKPGKAPKLLIYDTNNLADGVPSRFSGSGSGTDFTLTISSLQPEDFATYYCQQYNNYPPTFGQGTKLEIKRTVAAPDIQMTQSPSSLSASVGDRVTITCSASQDISNYLNWYQQKPGKAPKVLIYFTSSLHSGVPSRFSGSGSGTDFTLTISSLQPEDFATYYCQQYSTVPWTFGQGTKVEIK	1.2 fold	7.6 nM	7.33e-05 s⁻¹	9630 M⁻¹ s⁻¹		
S100a A (SS DLL4-VEGF DVD-Ig) (bispecific antibody, also called SS DLL4-VEGF DVD-Ig variant S100aA) VH: EVQLVESGGGLVQPGGSLRLSCAASGFTFSNFPMAWVRQAPGKGLEWVATISSSDGTTYYRDSVKGRFTISRDNAKNSLYLQMNSLRAEDTAVYYCARGYYNSPFAYWGQGTLVTVSSASTKGPEVQLVESGGGLVQPGGSLRLSCAASGYTFTNYGMNWVRQAPGKGLEWVGWINTYTGEPTYAADFKRRFTFSLDTSKSTAYLQMNSLRAEDTAVYYCAKYPHYYGASHWYFDVWGQGTLVTVSS VL: DIQMTQSPSSLSASVGDRVTITCRASEDIYSNLAWYQQKPGKAPKLLIYDTNNLADGVPSRFSGSGSGTDFTLTISSLQPEDFATYYCQQYNNYPPTFGQGTKLEIKRTVAAPDIQMTQSPSSLSASVGDRVTITCSASQDISNYLNWYQQKPGKAPKVLIYFTSSLHSGVPSRFSGSGSGTDFTLTISSLQPEDFATYYCQQYSTVPWTFGQGTKVEIK	0.8 fold	11 nM	0.000124 s⁻¹	11700 M⁻¹ s⁻¹		
VL T51A (antibody, V domains shown) VH: EVQLVESGGGLVQPGGSLRLSCAASGYTFTNYGMNWVRQAPGKGLEWVGWINTYTGEPTYAADFKRRFTFSLDTSKSTAYLQMNSLRAEDTAVYYCAKYPHYYGSSHWYFDVWGQGTLVTVSS VL: DIQMTQSPSSLSASVGDRVTITCSASQDISNYLNWYQQKPGKAPKVLIYFASSLHSGVPSRFSGSGSGTDFTLTISSLQPEDFATYYCQQYSTVPWTFGQGTKVEIKR					296	
VH K64Q (antibody, V domains shown, copies: 2 + 2) VH: EVQLVESGGGLVQPGGSLRLSCAASGYTFTNYGMNWVRQAPGKGLEWVGWINTYTGEPTYAADFQRRFTFSLDTSKSTAYLQMNSLRAEDTAVYYCAKYPHYYGSSHWYFDVWGQGTLVTVSS VL: DIQMTQSPSSLSASVGDRVTITCSASQDISNYLNWYQQKPGKAPKVLIYFTSSLHSGVPSRFSGSGSGTDFTLTISSLQPEDFATYYCQQYSTVPWTFGQGTKVEIK					230	
VH K64S (antibody, V domains shown, copies: 2 + 2) VH: EVQLVESGGGLVQPGGSLRLSCAASGYTFTNYGMNWVRQAPGKGLEWVGWINTYTGEPTYAADFSRRFTFSLDTSKSTAYLQMNSLRAEDTAVYYCAKYPHYYGSSHWYFDVWGQGTLVTVSS VL: DIQMTQSPSSLSASVGDRVTITCSASQDISNYLNWYQQKPGKAPKVLIYFTSSLHSGVPSRFSGSGSGTDFTLTISSLQPEDFATYYCQQYSTVPWTFGQGTKVEIK					168	
VH H97E.Y98F (antibody, V domains shown, copies: 2 + 2) VH: EVQLVESGGGLVQPGGSLRLSCAASGYTFTNYGMNWVRQAPGKGLEWVGWINTYTGEPTYAADFKRRFTFSLDTSKSTAYLQMNSLRAEDTAVYYCAKYPEFYGSSHWYFDVWGQGTLVTVSS VL: DIQMTQSPSSLSASVGDRVTITCSASQDISNYLNWYQQKPGKAPKVLIYFTSSLHSGVPSRFSGSGSGTDFTLTISSLQPEDFATYYCQQYSTVPWTFGQGTKVEIK					310	
H97 F (anti-VEGF IgG) (antibody, V domains shown, copies: 2 + 2) VH: EVQLVESGGGLVQPGGSLRLSCAASGYTFTNYGMNWVRQAPGKGLEWVGWINTYTGEPTYAADFKRRFTFSLDTSKSTAYLQMNSLRAEDTAVYYCAKYPFYYGSSHWYFDVWGQGTLVTVSS VL: DIQMTQSPSSLSASVGDRVTITCSASQDISNYLNWYQQKPGKAPKVLIYFTSSLHSGVPSRFSGSGSGTDFTLTISSLQPEDFATYYCQQYSTVPWTFGQGTKVEIK						kon [4]: 59000 M⁻¹ s⁻¹; ELISA 1hr binding [5]: 2 fold; koff [6]: ≤ 1e-05 s⁻¹; affinity improvement [7]: 2.5 fold; Kd [8]: ≤ 0.17 nM; ELISA o/n binding [9]: 2.3 fold
VH Y53F.K64Q (antibody, V domains shown, copies: 2 + 2) VH: EVQLVESGGGLVQPGGSLRLSCAASGYTFTNYGMNWVRQAPGKGLEWVGWINTFTGEPTYAADFQRRFTFSLDTSKSTAYLQMNSLRAEDTAVYYCAKYPHYYGSSHWYFDVWGQGTLVTVSS VL: DIQMTQSPSSLSASVGDRVTITCSASQDISNYLNWYQQKPGKAPKVLIYFTSSLHSGVPSRFSGSGSGTDFTLTISSLQPEDFATYYCQQYSTVPWTFGQGTKVEIK					217	
